Data on five molecules can be found in patent US12276665B2, “Methods for screening and identifying agents that inhibit or modulate the nuclear egress complex of herpesviruses” (priority 2018, dated 2025).

Non-standard residues stand in square brackets, D forms with d. Residues, ends and D or L forms follow the SMILES beside them. *: point of attachment. Biotin = O=C1N[C@H]2[C@H](CS[C@H]2CCCCC(=O)*)N1; AEEA = NCCOCCOCC(=O)O

Assay [1] addresses pUL50-pUL53 interaction (HCMV NEC) (Human cytomegalovirus, UniProt P16791). Nature of the assay: competitive binding assay. Here is the method:
These experiments were designed to address the peptide-protein interactions for each virus, as well as the ability of the hook peptides and proteins to cross-interact with the groove proteins of the respective other virus.
After blocking with BSA plates were incubated with 50 μL/well of inhibitor solutions at different concentration ranges, and 50 μL/well of His-tagged pUL50 (0.16 μg/mL) and BFRF1 (5 μg/mL), respectively. His-tagged pUL50 and BFRF1 were detected and plates developed as described above. IC50-values were determined using the regression wizard of GraphPad Prism. All data points present means of duplicates. Inhibition was calculated according to the following formula: % Inhibition=[1−(Apeptide−Ablank1)/(A100%−Ablank2)]×100, in which “100%” is a sample without inhibitor, “blank1” is a sample without coated hook protein and “blank2” is a sample without coated hook protein and without inhibitor.

The target in assay [2] is T1, VZV Orf27 (Varicella-zoster virus, UniProt P09283).
T1 construct: expressed in transfected cells; host or cells: 293T
Kind of assay: coimmunoprecipitation (CoIP), proteins from transient transfection. It is filed as binding. As to conditions: 293T cells. From the text: (§1) Two or three dpt cells were harvested.

Assay [3] has as its system MCMV pM53. The description is as above. In kind it is binding. As to conditions: 293T cells.
Excerpt: as §1

Assay [4] deals with T2, EBV BFLF2 (Epstein-Barr virus, UniProt P0CK47).
T2 construct: expressed in transfected cells; host or cells: 293T
T2 sequence (P0CK47 whole entry, looked up): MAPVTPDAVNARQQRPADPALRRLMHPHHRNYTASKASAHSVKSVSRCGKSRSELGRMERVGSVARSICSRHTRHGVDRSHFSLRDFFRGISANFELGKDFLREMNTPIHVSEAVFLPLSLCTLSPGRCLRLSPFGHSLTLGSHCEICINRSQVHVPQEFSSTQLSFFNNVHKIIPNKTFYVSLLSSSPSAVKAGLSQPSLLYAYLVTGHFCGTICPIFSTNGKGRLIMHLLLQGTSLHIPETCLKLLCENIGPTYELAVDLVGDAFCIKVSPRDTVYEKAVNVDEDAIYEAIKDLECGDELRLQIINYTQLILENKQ
Described as above. It is filed as binding. As to conditions: 293T cells.
Excerpt: as §1

Assay [5] has as its target HCMV pUL53 (Human cytomegalovirus, UniProt P16794). To be noted: 293T cells, transient transfection.
Procedure: CoIP analyses were performed to investigate specific protein-protein interactions (Bannister and Kouzarides, 1996). To this end, 293T cells (5×10^6) were transfected with the plasmids coding for the proteins of interest. One day before CoIP, 50 mg/ml protein A sepharose or 25 μl of dynabeads Protein A were incubated with the appropriate antibody in 500 μl CoIP buffer at 4° C. overnight. Two or three dpt cells were harvested. Lysis was performed using 500 μl CoIP buffer containing protease inhibitors and PMSF on ice for 20 min, sonificated (20 impulses, 80%) and centrifuged (14000 rpm, 10 min, 4° C.). For expression controls 50 μl aliquots of each supernatant were taken and boiled in 50 μl 2× boiling mix for 10 min at 95° C. The antibody-loaded dynabeads or sepharose beads (washed three times with CoIP buffer) were incubated with the lysates for 1.5 h at 4° C. Thereafter, samples were washed with CoIP buffer five times, resuspended in 30 μl 2× boiling mix and boiled 10 min at 95° C. Separation and analyzation of protein complexes were performed using SDS-PAGE and Wb.
Protein samples obtained from CoIP or cell lysates were separated by SDS-PAGE and transferred to a nitrocellulose membrane by electroblotting (200-300 mA for 80 min). […] Finally, the membranes were washed again three times with PBSo over 30 min, shortly incubated within a freshly prepared ECL solution (10 ml ECL solution A, 100 μl ECL solution B and 3.1 μl H2O2) and the proteins were detected by the use of the FUJIFILM Luminescent Image Analyzer LAS-1000 (FUJIFILM Europe GmbH, Düsseldorf, Germany). […]
At three dpt, cells were lysed and HA-tagged proteins were precipitated using pAb-HA or a rabbit antibody Fc fragment as specificity control. […] Lysate controls taken prior to the IP and CoIP samples were subjected to standard Wb analysis and protein expression was analyzed using tag- or protein-specific antibodies.
The target in assay [6] is pUL53 (Human cytomegalovirus, UniProt P16794). As to conditions: ratio of EC50 values. Here is the method: Plates were washed four times with 0.01% Tween 20 in 0.1 M phosphate buffer pH 7.2 (300 μL/well) after each incubation step. […] All data points present means of duplicates.

By IC50 is commonly meant the concentration at which inhibition is half-maximal. A high value points to a need for much substance. `CC[C@H](C)[C@H](NC(=O)CNC(=O)[C@H](CCCNC(=N)N)NC(=O)[C@H](Cc1ccccc1)NC(=O)[C@H](Cc1ccccc1)NC(=O)[C@H](CC(=O)O)NC(=O)[C@H](CCCNC(=N)N)NC(=O)[C@H](CC(C)C)NC(=O)[C@H](CO)NC(=O)[C@H](Cc1ccccc1)NC(=O)[C@H](Cc1c[nH]cn1)NC(=O)[C@H](CO)NC(C)=O)C(=O)N[C@@H](CO)C(=O)N[C@@H](C)C(=O)N[C@@H](CC(N)=O)C(=O)N[C@@H](Cc1ccccc1)C(=O)N[C@@H](CCC(=O)O)C(=O)N[C@@H](CC(C)C)C(=O)NCC(=O)N[C@@H](CCCCN)C(=O)N[C@@H](CC(=O)O)C(=O)N[C@@H](Cc1ccccc1)C(=O)N[C@@H](CC(C)C)C(=O)N[C@@H](CCCNC(=N)N)C(=O)N[C@@H](CCC(=O)O)C(=O)N[C@@H](CCSC)C(=O)N[C@@H](CC(N)=O)C(=O)N[C@H](C(=O)N1CCC[C@H]1C(=O)NCCOCCOCC(=O)N[C@@H](CCCCNC(=O)CCCC[C@@H]1SC[C@@H]2NC(=O)N[C@@H]21)C(N)=O)[C@@H](C)O` [EBV hook peptide] (Ac-SHFSLRDFFRGISANFELGKDFLREMNTP[AEEA]K(Biotin)-NH2): the IC50 in assay [1] is 2600 nM. In addition, the “fold lower inhibitory activity than the HCMV counterpart (hook protein or hook peptide)” value in assay [1] (ratio of IC50 values) is recorded as “approximately 22 fold”.

On to `CC[C@H](C)[C@H](NC(=O)[C@H](C)NC(=O)[C@H](CCSC)NC(=O)[C@H](CCCCN)NC(=O)[C@H](CCSC)NC(=O)[C@H](CCSC)NC(=O)[C@H](CC(N)=O)NC(=O)[C@H](CC(C)C)NC(=O)[C@H](Cc1ccc(O)cc1)NC(=O)[C@H](CCCCN)NC(=O)[C@H](CC(C)C)NC(=O)[C@H](CCC(=O)O)NC(=O)[C@H](CC(C)C)NC(=O)[C@H](CCC(=O)O)NC(=O)[C@@H]1CCCN1C(=O)[C@H](Cc1c[nH]cn1)NC(=O)[C@H](CCC(=O)O)NC(=O)[C@H](CCCNC(=N)N)NC(=O)[C@H](Cc1ccccc1)NC(=O)[C@@H](NC(=O)[C@H](CC(=O)O)NC(=O)[C@H](Cc1c[nH]cn1)NC(=O)[C@H](CC(C)C)NC(=O)[C@H](CC(=O)O)NC(=O)[C@H](Cc1c[nH]cn1)NC(=O)[C@H](CC(C)C)NC(=O)[C@@H](NC(=O)[C@H](CC(C)C)NC(C)=O)[C@@H](C)O)[C@@H](C)CC)C(=O)N[C@H](C(=O)NCCOCCOCC(=O)N[C@@H](CCCCNC(=O)CCCC[C@@H]1SC[C@@H]2NC(=O)N[C@@H]21)C(N)=O)[C@@H](C)O` [HCMV hook peptide], for which the IC50 in assay [1] is 114 nM.

Consider “pUL50: HCMV groove protein of the core NEC; His-tagged in ELISA, HA-tagged in CoIP”, for which the “CoIP interaction with VZV Orf27” value in assay [2] is on record as “−”. For the same molecule, the “CoIP interaction with MCMVpM53” value in assay [3] is reported as “+”. The “CoIP interaction with EBV BFLF2” value in assay [4] is recorded as “−”. The “CoIP interaction with HCMV pUL53” value in assay [5] was “+”. The “fold stronger interaction than the BFRF1-BFLF2 interaction of EBV” value in assay [6] is “approximately 20 fold”.

B1: BFRF1: EBV groove protein of the core NEC; His-tagged in ELISA, HA-tagged in CoIP (protein)
chain: MASPEERLLDELNNVIVSFLCDSGSLEVERCSGAHVFSRGSSQPLCTVKLRHGQIYHLEFVYKFLAFKLKNCNYPSSPVFVISNNGLATTLRCFLHEPSGLRSGQSGPCLGLSTDVDLPKNSIIMLGQDDFIKFKSPLVFPAELDLLKSMVVCRAYITEHRTTMQFLVFQAANAQKASRVMDMISDMSQQLSRSGQVEDTGARVTGGGGPRPGVTHSGCLGDSHVRGRGGWDLDNFSEAETEDEASYAPWRDKDSWSESEAAPWKKELVRHPIRRHRTRETRRMRGSHSRVEHVPPETRETVVGGAWRYSWRATPYLARVLAVTAVALLLMFLRWT
modifications: Human herpesvirus 4
notes: EBV groove protein of the core NEC; His-tagged in ELISA, HA-tagged in CoIP
B1: the “CoIP interaction with EBV BFLF2” value in assay [4] is “+”. Moreover, the “CoIP interaction with HCMV pUL53” value in assay [5] is “−”.

B2: MCMV pM50: MCMV core NEC protein, HA-tagged, transiently expressed (protein)
chain: MEIDKNVGADLISNTRRILRLDENELRITDTALICKNPNYSLCDAMLTTDIVYPVEYLLSYWECRSGRTACFVFKNTGCRVSLSCYIGFPERLKDLKRVCDFNFLSVNEALVVTLADIERIKPCDKGVLTNCVVRKSNSGMSYNIEVVAFGPDNEAEYQALLRDIYARRMTSVPTDCGSLICRRARCLAAAPPRRPPPPPPPGQRWGSLRKHGPVLTRRYAGGGGAAKNQPAAASPTSTSTSSPAAPSRDQDQTQRPPPAGDTNVTAAETTYSERTISFLTRHANAIHCALILAAAIALVLLWLLYWHAARSAGHP
modifications: Mouse cytomegalovirus 1
notes: MCMV core NEC protein, HA-tagged, transiently expressed
Consider B2, for which the “CoIP interaction with MCMVpM53” value in assay [3] is listed as “+”. In addition, the “CoIP interaction with EBV BFLF2” value in assay [4] was “−”. Besides, the “CoIP interaction with HCMV pUL53” value in assay [5] is “+”.
